# Measured values taken from the nanobody polyreactivity screen of Harvey et al. (2022).
# Test: yeast display, Sf9 membrane polyspecificity reagent, FACS + sequencing; frameworks hold sequencing errors
# Outline: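 Galactose-induced (36–48 hours) yeast carrying a synthetic nanobody display library were exposed to 10% biotinylated, detergent-solubilized Sf9 membrane reagent at 4 °C for 1 hour. FACS followed streptavidin microbead enrichment, using low and high (top ~1%) gates for expression (anti-HA) and reagent binding (streptavidin). Colony PCR, MiSeq 2 × 250 sequencing and CDR-length filtering followed. Labels for polyreactivity reflect the gate of origin.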
row,Sequence,polyreactivity (PSR sort gate)
1,QVQLVESGGGLVQAGGSLRLSCAASGSIFKGNAMGWYRQAPGTERELVASITRSVARTYYADSVKGRFTISRDNAKNTVFLLMNSLKAEDTAVYYCAADWYQWGGRYYAPRYYYWGQGTQVTVSS,high polyreactivity
2,QVQLVESGGGLVQAGGSLRLSCAASGSIFESYVMGWYRQAPGKERELVAAISSGGSTYYADSVKGRFTISRDNAKNTVYLQMNSLKPEDTAVYYCAANYDGGYLDYEAGYRLEYDYWGQGTQVTVSS,low polyreactivity
3,QVQLVESGGGLVQAGGSLRLTCAASGSIFPKNAIGWYRQAPGKERQLVAGITSRTGRTYYADSVKGRFTISRDNAENTVYLQMNSLKPEDTAVYYCAARNPSGKGRYDYWGQGSQVTVSS,high polyreactivity
4,QVQLVESGGGLVQAGGSLRLSCAASGITFTYNAMGWYRQAPGKERELVAAITWSGGSTYYADSVKGRFTISRDNAKYTVYLQMNSLKPEDTAVYYCNAKHFAYSVAHPYLRYGYDYWGQGTQVTVSS,low polyreactivity
5,QVQLGESGGGLVQAGGSLRLSCAASGSIFSKYAKGSYRQAPGKERELVAAITMNGGSTYYADSVKGRFTISRDNAKNTVYFQMNSLKPEDTAVYYCSKSERPWWGYYYQFDYWGQGTQVTVSS,low polyreactivity
6,QVQLVESGGGLVQAGGSLRLSCAASGSIFIYNARGWYRQAPGKERELVAAINWTGGSTYYADSVKGRFTISRDNAKNTVYLQMNSLKPEDTAVYYCNALRYGSTRGYDYWGQGTQVTVSS,high polyreactivity
7,QVQLVESGGGLVQAGGSLRLSCAASGIIFSYYTMGWYRQEPGKEREVVAAISARGGRTYYADSVKGRFTISRDNAKNTVYLQMNSLKPEDTAVYYCAASWSTEYYWGQGTQVTVSS,high polyreactivity
8,QVQLEESGGGLVQAGGSLRLSCAASGIIFSYYDMGRYRQAPGKERELVATITRKGGSTYYADTVKGRFTISRDYAKNTVYFQMNSLKPEDTAVYYCAAQTTVYIYDYWGQGSQVTVSS,low polyreactivity
9,QVQLVESGGGLVQAGGSLRLSCAASGITFYGNAMGWYRQAPGKERELVAAISSSGGTTYYADSVKGRFTISRDNAKNTVYLQMNSLIPEDTAVYYCNALHPVVYYGTYFNLRRYDYWGQGTQVTVSS,low polyreactivity
10,QVQLVESGGGLVQAGGSLRLSCAASGSTFEVYTMGWSIQSPGKVRELVATISGDDGSTYYADSVKGRFTISRDNAKNTVYLQMNSLKPEDTAVYYCAADYGGFPNYYSTGDYWGQGTQVTVSS,low polyreactivity
11,QVQLVESGGGLVQAGGSLRLSCAASGSTFYPYAMGWYRQAPGKERELVAAITTRGRTYYGDSVKGRFTISRDNAKYTVYLQMNSLKPEDTAVYYCNARRYFSRDTSGYNYWGQGTQVTVSS,high polyreactivity
12,QVQLVESGGGLVQAGGSLRLSCAASGFIFDYYGMGWYRQAPGKERELVAAITRGGSTYYADSVKGRFTISRDNAKNTVYLQMNSLKPEDTAFYYCAAKYVSQGYDYWGQGTQVTVSS,high polyreactivity
13,QVQLVESAGGLVQAGGSLRLSCAASGSIFPFYAMRWYRQAPGKERELVATINFSGGSTYYADSVKGRFTISRDNAKNTVYLQMNSLKPEDTAVYYCAASYGAKYIVLYDYWGQGTQVTVSS,low polyreactivity
14,QVQLVESGGGLVQAGGSLRLSCAASGRTLVHYAMGWYRQAPGKERELVAAISIGGDSTYAVSVKGRFTISRDNAKNTVYLQMNSLKPEDTAVYYCAASGWWDFFDPYFKFDYWGQGTQVTVSS,low polyreactivity
15,QVQLVESGGGLVQAGGSLRLSCAASGRIFQRYAMGWYRQAPGKERELVAVITKRGGNTYYADSVKGRFTISRDNAKNTVYLQMNSLKPEDTAVYYCANRSGRSTGDYWGQGTQVTVSS,high polyreactivity
16,QVQLVESGGGLVQAGGSLRLSCAASGFTFASNAMGWYRQAPGKERELVADITNTGSTYYADSVKGRFTISRDNAKNTVYLQMNSLKPEDTAVYYCAARSRDVTDGQRISAPHGYWGQGTQVTVSS,low polyreactivity
17,QVQLVESGGGLVQAGGSLRLSCAASGSTLPTNAMGWYRQAPGKEREFVAAISDNGGSTYYADSVKGRFTISRDNAKNTVYLQMNSLKPEDTAVYYCAADNFAPEFYYWGQGTQVTVSS,low polyreactivity
18,QVQLVESAGGLVQAGGSLRITCAASASTYSWYTMGWYREAPGKERELVASINYSGTNTYYADSVKGRFTISRDNAKNTVYLQMNSLNPEDTAVYYCAARPRTKLTAYNYCGQGTQVTVSS,high polyreactivity
19,QVQLVESGGGLVQAGGSLRLSCAASGSIFYYNAMGWYRQAPGKESELVAASSRRVGNTYYADSVKGRFTISRDNAKNTVYLQMNSLKPEDTAVYYCNTDRSSRPSYDYWGQGTQVTVSS,high polyreactivity
20,QVQLEESGGGLVQAGGSLRLSCAASGSIFYSNAMGWYRQAPGKERELVATIRSGGTTYYADSVKGRFTISRDNAKNTVYLQMNSLKPEDTAVYYCAKRYGVKYWGQGTQVTVES,high polyreactivity
21,QVQHVESGGGLVQAGGSLRLSCAASGRTLLGNAMGRYRQAPGKEREFVAAISYRGGSTYYADSVKGRFTISRDNAKNTVYLQMNSLKPEDTAVYYCAASSFKYSRFDYWGQGTQVTVSS,low polyreactivity
22,QVQLVESGGGLVQAGGSLRLSCAASGSLIRRYAMGWYRQAPGKEREFVAAISGRGGRTYYADSVKGRFTISRDNAKNTVYLQMNSLKPEDTAVYYCNAAFVTAEMDYWGQGTQVTVSS,high polyreactivity

row,Sequence,polyreactivity (PSR sort gate)
1,QVQLVESGGGLVQAGGSLRLSCAATGFTLTRNAMGWYRQAPGKERELVAAISWSGGTTYYADSVKGRFTISRDNAKNTFYLQMNSLKPEDTAVYYCAALRYKLPLGYWGQGTQVTVSS,high polyreactivity
2,QVQLVESGGGLVQAGGSLRLSCAASGSTFNGYAMGWYRQAPGKERELVAAISKRGGSTYYADSVKGRFTISRDNAKNTVYLQMNSLKPEDTAVYYCAARNPTKYLMDYWGKGTQVTVSS,high polyreactivity
3,QVQLVESGGGLVQAGGSLRLSCAASGFIFVKYAMGWYRQAPGKERELVAAISSTGGRTYYADSVKGRFTISRDNAKNTVYLQMNSLKPEVTAVYYCATEYGYPYGYWGQCTQVTVSS,high polyreactivity
4,QVQLVESGGGLVQAGGSLRFSCAASGRIFFWYAMGWYRQAPGKEWELVAAISRDGGTTYYADSVKGRFTISRDNAKNTVYLQMNSLKPEDTAVYYCNAEARSRRYRYDYWGQGTQVNVSS,high polyreactivity
5,QVQLVESGGGLVQAGGSLRLSCAASGIIFYRYAMGWYRQAPGKERELVAAITWRGGSPYYADSVKGRFTISRDNAKNTVYLQMNSLKPEDTAVYYCAAESYWTATYTFDYWGQGTQVTVSS,high polyreactivity
6,QVQLVESGGGLVQAGGSLRLSCAASGSTFLTNTMGWYRQAPGKERELVAIISRSSGTTYYSDSVKGRFTISRDNAKNTVYLQMNSLKPEDTAVYYCAKRYRRASPYSKNVYWGQGTQVTVSS,high polyreactivity
7,QVQLVESGGGLVQAGGSLRLSCAASGLIFSWYAMGWYRQAPGKERELVAAITGSGGRTYYADSVKGRFTISRDNAKNTVYLQMNSLKPEDTAVYYCAALYTARYDYWGQGTQVTVSS,high polyreactivity
8,QVQLVESGGGLVQAGGSLRLSCAASGSTFYYNAMGWYRQAPGKERELVAAITSSGGRTYYADSVKGRFTISRDNAKNTVYLQMNSLKPEDTAVYYCAKREASSRWPYDYWGQGTQVTVSS,low polyreactivity
9,QVQLVESGGGLVQAGGSLRLSCAASGRTFLKYTLGWYRQAPGKERELVAAISGSGGSTYYADSVKGRFTISRDNAKNTVYLQMNSLKPEDTAVYYCAAAIVRHYQTGYYWGQGTQVTVSS,high polyreactivity
10,QVQLVESGGGLVQAGGSLRLSCAASGSIFVTYALGWYRQAPGKERELVAAINSGGRTNYADSVKGRFTISRDNAKNTVYLQMNSLKPEDTAVYYCAATGRYFYPYYRYDYWGQGTQVTVSS,low polyreactivity
11,QVQLVESGGGLVQAGGSLRLSCAASGSIFAGYAMGWYRQAPGKERELVAAISKSAGSTYYADSVKGRFTISRDNAKNTVYLQMNSLKAEDTAVYYCAARTFNTYPSYYYWGQGTQVTVSS,high polyreactivity
12,QVQLVESGGGLVQAGGSLRLSCAASGSIFYSNFMGWYRQAPGKERELVARITDAGSTNYADSVKGRFTISRDNAKNSVYLQMNSLKPEDTAVYYCNARLVIYTYDYWGQGTQVTVSS,low polyreactivity
13,QVQLVESGGGLVQAGGSLRLSCAASGFIFPYYTMGWYGQARGKERELVAAISYSGGSTYYADSVKGRFTISRDKAKNTVYLQMNSLKPEDTAVYYCNADPPLIVYKVWFLLDYWGQGTQVTVTS,high polyreactivity
14,QVQLVESGGGLVQAGASLRLSCAASGRTFRYYAMGWYRQAPGKERELVAAINTGSSTYYADSVKGRFTISRDNAKYTVYLQMNSLKPEDTAVYYCNVFQGTRYGYWGQGTKVTVSS,low polyreactivity
15,QVQLVESGGGLVQAGGSLRLSCAASGYTSNMGWYRQAPGKERELVAAITSGGDGTYYADSVKGRFTISRDNAKNTVYLQMNSLKPEDTAVYYCAKRGRDYNYGRAGYYWGQGTQVTVSS,low polyreactivity
16,QVQLVESGGGLVQAGGSLRLSCAASGLTFTFYTMGWYRQAPGKERELVAAISIGGSTYYADSVKGRFTISRDNAKNTVYLQMNSLKQEDTAVYYCAAGYSRYYGHWGYYYWGQGTQVTVSS,high polyreactivity
17,QVQLVESGGGLVQAGGSLRLSCAASGFTFRYYAMGWYRQAPGKERELLAAISWSGGSTYYADSVKGRFTISRDNAKNTVYLQMNSLNPEDTAVYYCAADSVFGGRGRYQASRYYYWGQGPQVTVSS,high polyreactivity
18,QVQLQESGGGLLQAGGSLRLSCAASGNFFDADIMGWYRQAPGKERELVASITDGGSTNYADRVKGRFTISRGNTKNTVYLLMNCLKPDDTSVYYCAAIAYPDIPTYFDYNSDYFYGGQGTQVTVSS,high polyreactivity
19,QVQLVESGGGLVQAGGSLRLSCAASGLIFVANAMGWYRQAPGKERELVAAISRSGGITTYADSVKGRFTISRDNAKNTVYLQMNSLKPEDTAVYYCAADTDPNPLIDYTLPMDYWGQGTQVTVSS,low polyreactivity
20,QVQLVESGGGLVQAGGSLRLSCAASGIIFTYNTMGWYRQAPGKERELVAAINYSGGSTYYADSVKGRFTISRDNAKNTVYLQMNSLKPEDTAVYYCAAPYRRKARGFQQSFDYWGQVTQVTVSS,high polyreactivity
21,QVHLVESGGGLVQAGGSLRLSCAASGSTFTYYAMGWYRQAPGKERELVAAITSGGSTNYADSVKGRFTISRDNAKNTVYLQMNSLKPEDTAVYYCAGDGQNFQFYVVSEEYDYWGQGTQVTVSS,low polyreactivity
